# B1: Isoform 2 of Bardet-Biedl syndrome 7 protein (Homo sapiens), Q8IWZ6-2 (parent)
# chain: MDLILNRMDYLQVGVTSQKTMKLIPASRHRATQKVVIGDHDGVVMCFGMKKGEAAAVFKTLPGPKIARLELGGVINTPQEKIFIAAASEIRGFTKRGKQFLSFETNLTESIKAMHISGSDLFLSASYIYNHYCDCKDQHYYLSGDKINDVICLPVERLSRITPVLACQDRVLRVLQGSDVMYAVEVPGPPTVLALHNGNGGDSGEDLLFGTSDGKLALIQITTSKPVRKWEIQNEKKRGGILCIDSFDIVGDGVKDLLVGRDDGMVEVYSFDNANEPVLRFDQMLSESVTSIQGGCVGKDSYDEIVVSTYSGWVTGLTTEPIHKESGPGEELKINQEMQNKISSLRNELEHLQYKVLQERENYQQSSQSSKAKSAVPSFGINDKFTLNKDDASYSLILEVQTAIDNVLIQSDVPIDLLDVDKNSAVVSFSSCDSESNDNFLLATYRCQADTTRLELKIRSIEGQYGTLQAYVTPRIQPKTCQVRQYHIKPLSLHQRTHFIDHDRPMNTLTLTGQFSFAEVHSWVVFCLPEVPEKPPAGECVTFYFQNTFLDTQLESTYRKGEGVFKSDNISTISILKDVLSKEATKRKINLNISYEINEVSVKHTLKLIHPKLEYQLLLAKKVQLIDALKELQIHEGNTNFLIPEYHCILEEADHLQEEYKKQPAHLERLYG
# partner: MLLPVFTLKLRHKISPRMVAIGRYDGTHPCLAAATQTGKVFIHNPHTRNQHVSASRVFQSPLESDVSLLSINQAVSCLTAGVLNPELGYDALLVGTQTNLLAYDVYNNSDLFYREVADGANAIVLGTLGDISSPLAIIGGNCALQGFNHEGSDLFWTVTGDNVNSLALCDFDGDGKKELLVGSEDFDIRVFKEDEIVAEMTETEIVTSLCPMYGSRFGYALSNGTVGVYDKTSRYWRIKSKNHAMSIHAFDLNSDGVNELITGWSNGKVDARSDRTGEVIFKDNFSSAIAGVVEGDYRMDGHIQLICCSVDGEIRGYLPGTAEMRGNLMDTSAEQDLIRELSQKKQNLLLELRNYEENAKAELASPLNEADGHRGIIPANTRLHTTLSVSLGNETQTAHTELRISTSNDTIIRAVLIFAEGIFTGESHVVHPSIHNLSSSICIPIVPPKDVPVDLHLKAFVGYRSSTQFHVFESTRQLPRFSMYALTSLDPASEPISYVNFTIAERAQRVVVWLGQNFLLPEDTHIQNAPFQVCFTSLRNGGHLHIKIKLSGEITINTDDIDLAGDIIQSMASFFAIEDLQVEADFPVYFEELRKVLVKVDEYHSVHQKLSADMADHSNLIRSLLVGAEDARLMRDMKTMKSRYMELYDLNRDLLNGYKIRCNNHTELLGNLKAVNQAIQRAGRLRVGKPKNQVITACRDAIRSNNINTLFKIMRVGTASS
# Variants of: B1
# Settings: with bbs2_human BBS2, Q9BXC9
row,Variant,effect of a mutation on the interaction
1,L656K,with no effect
2,L656E,with no effect
3,L656A,with no effect
4,H610A,with no effect
5,H610E,with no effect
6,H610K,with no effect
7,E659K,with no effect
8,E659A,with no effect
9,A653E,with no effect
10,A653K,with no effect
11,E631A,with no effect
12,E631K,with no effect
13,T605K,with no effect
14,T605A,with no effect
15,T605E,with no effect
16,H635K,with no effect
17,H635E,with no effect
18,H635A,with no effect
19,N640A,with no effect
20,N640E,with no effect
21,N640K,with no effect
22,Y660A,with no effect
23,Y660E,with no effect
24,Y660K,with no effect

row,Variant,effect of a mutation on the interaction
1,L613A,with no effect
2,L613E,with no effect
3,L613K,with no effect
4,A620K,with no effect
5,A620E,with no effect
6,I649A,with no effect
7,I649E,with no effect
8,I649K,with no effect
9,H604E,with no effect
10,H604K,with no effect
11,H604A,with no effect
12,L629A,with no effect
13,L629K,with no effect
14,L629E,with no effect
15,L619E,with no effect
16,L619K,with no effect
17,L619A,with no effect
18,K621A,with no effect
19,K621E,with no effect
20,K607E,with no effect
21,K607A,with no effect
22,Y646A,with no effect
23,Y646K,with no effect
24,Y646E,with no effect

row,Variant,effect of a mutation on the interaction
1,P644A,with no effect
2,P644K,with no effect
3,P644E,with no effect
4,L625E,with no effect
5,L625A,with no effect
6,L625K,with no effect
7,V600K,with no effect
8,V600A,with no effect
9,V600E,with no effect
10,I609E,with no effect
11,I609K,with no effect
12,I609A,with no effect
13,V623E,with no effect
14,V623A,with no effect
15,V623K,with no effect
16,A665K,with no effect
17,A665E,with no effect
18,Q624L,disrupting interaction strength
19,Q624E,with no effect
20,Q624A,with no effect
21,Q624Y,disrupting interaction strength
22,Q624K,with no effect
23,Q624S,disrupting interaction strength
24,E636K,with no effect

row,Variant,effect of a mutation on the interaction
1,E636A,with no effect
2,V602K,with no effect
3,V602E,with no effect
4,V602A,with no effect
5,L650E,with no effect
6,L650A,with no effect
7,L650K,with no effect
8,K612E,with no effect
9,K612A,with no effect
10,D654E,with no effect
11,D654A,with no effect
12,D654K,with no effect
13,Q663K,with no effect
14,Q663E,with no effect
15,Q663A,with no effect
16,L617K,with no effect
17,L617A,with no effect
18,L617E,with no effect
19,K661A,with no effect
20,K661E,with no effect
21,K622E,with no effect
22,K622A,with no effect
23,C648K,with no effect
24,C648E,with no effect

row,Variant,effect of a mutation on the interaction
1,C648A,with no effect
2,K603A,with no effect
3,K603E,with no effect
4,S601A,with no effect
5,S601K,with no effect
6,S601E,with no effect
7,E651K,with no effect
8,E651A,with no effect
9,L632E,with no effect
10,L632A,with no effect
11,L632K,with no effect
12,H655K,with no effect
13,H655E,with no effect
14,H655A,with no effect
15,E645A,with no effect
16,E645K,with no effect
17,P664K,with no effect
18,P664E,with no effect
19,P664A,with no effect
20,I643K,with no effect
21,I643E,with no effect
22,I643A,with no effect
23,H647A,with no effect
24,H647E,with no effect

row,Variant,effect of a mutation on the interaction
1,H647K,with no effect
2,P611E,with no effect
3,P611A,with no effect
4,P611K,with no effect
5,N638A,with no effect
6,N638K,with no effect
7,N638E,with no effect
8,L608A,with no effect
9,L608E,with no effect
10,L608K,with no effect
11,E599A,with no effect
12,E599K,with no effect
13,I626A,with no effect
14,I626E,with no effect
15,I626K,with no effect
16,E652K,with no effect
17,E652A,with no effect
18,Q633A,with no effect
19,Q633K,with no effect
20,Q633E,with no effect
21,T639K,with no effect
22,T639A,with no effect
23,T639E,with no effect
24,H666A,with no effect

row,Variant,effect of a mutation on the interaction
1,K662A,with no effect
2,K662E,with no effect
3,E658K,with no effect
4,E658A,with no effect
5,L642K,with no effect
6,L642A,with no effect
7,L642E,with no effect
8,E614K,with no effect
9,E614A,disrupting interaction strength
10,L606E,with no effect
11,L606A,with no effect
12,L606K,with no effect
13,Q616A,with no effect
14,Q616D,disrupting interaction strength
15,Q616K,with no effect
16,Q616E,with no effect
17,L618E,with no effect
18,L618K,with no effect
19,L618A,with no effect
20,A628K,with no effect
21,A628E,with no effect
22,F641E,with no effect
23,F641A,with no effect
24,F641K,with no effect

row,Variant,effect of a mutation on the interaction
1,Q657E,with no effect
2,Q657A,with no effect
3,Q657K,with no effect
4,D627K,with no effect
5,D627A,with no effect
6,D627E,with no effect
7,I634E,with no effect
8,I634A,with no effect
9,I634K,with no effect
10,Y615A,with no effect
11,Y615E,with no effect
12,Y615K,with no effect
13,G637E,with no effect
14,G637A,with no effect
15,G637K,with no effect
16,K630E,with no effect
17,K630A,with no effect
